Results taken from patent US20240392003A1 (NUMAB THERAPEUTICS, published 2024).
Where two headings read alike, the source gives them in different places.

Legend:
[1] = biological target: T1, human ROR1 expressed on cells (human, UniProt Q01973 30-937); assay: flow cytometry, MDA-MB-231 cells, 1 mg/ml hSA
T1 construct: whole, on cells; One molecule for cell-surface ROR1 on all cell lines; the cell line is named under assay; also called hROR1; plasma membrane human ROR1

[2] = biological target: T2, recombinant human ROR1 protein (Fc-Tag, Acro Biosystems RO1-H5250) (human, UniProt Q01973 30-406); assay: SPR; hROR1-Fc immobilized;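 note: biacore T200 SPR with ROR1 covalently coupled to a CM5 chip, analyte titration series, apparent rate and equilibrium constants fitted with a 1:1 Langmuir model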
T2 construct: Bought; also called hROR1; recombinant human ROR1 ECD; not shown: Fc tag

[3] = biological target: T3, recombinant human CD3 epsilon extra-cellular domain protein (His-Tag, SinoBiological) (human, UniProt P07766 23-126); assay: SPR; hCD3ε immobilized, two-state fit (kd1)
T3 construct: extracellular domain; Bought; also called hCD3ε; human CD3ε; not shown: His tag

[4] = biological target: T1, human ROR1 expressed on cells; assay: flow cytometry, MDA-MB-231 cells, 1 mg/ml hSA; remark: listed apart in the source
[5] = biological target: T3, recombinant human CD3 epsilon …; assay: SPR; hCD3ε immobilized, two-state fit (ka1)
[6] = biological target: T3, recombinant human CD3 epsilon …; assay: SPR; hCD3ε immobilized, two-state fit
[7] = biological target: T4, human serum albumin (Sigma-Aldrich A3782) (human, UniProt P02768 25-609); assay: SPR; hSA immobilized, pH 5.5
T4 construct: also called hSA; HSA

[8] = biological target: T3, recombinant human CD3 epsilon …; assay: SPR; hCD3ε immobilized, two-state fit (kd1); remark: listed apart in the source
[9] = biological target: T3, recombinant human CD3 epsilon …; assay: SPR; hCD3ε immobilized, two-state fit (Ka1)
[10] = biological target: T3, recombinant human CD3 epsilon …; assay: SPR; hCD3ε immobilized, two-state fit; remark: listed apart in the source
[11] = biological target: T2, recombinant human ROR1 protein (Fc-Tag, …); assay: SPR; hROR1-Fc immobilized (Avidity)
[12] = biological target: T4, human serum albumin (Sigma-Aldrich …); assay: SPR; hSA immobilized, pH 5.5; remark: listed apart in the source
[13] = biological target: T1, human ROR1 expressed on cells; assay: flow cytometry, MDA-MB-231 cells, 1 mg/ml hSA; remark: listed apart in the source
[14] = biological target: T5, human ROR1 (Peprotech 160-054) (human, UniProt Q01973 30-406); assay: SPR; MATCH4 captured, hROR1 analyte (Affinity)
T5 construct: Bought, used as analyte; also called hROR1; recombinant human ROR1 protein

B1: PRO2287 (bispecific antibody)
chain: DIQMTQSPSSLSASVGDRVTITCQSSESVYSNNQLSWYQQKPGQPPKLLIYDASDLASGVPSRFSGSGSGTDFTLTISSLQPEDFATYYCAGGFSSSSDTAFGCGTKLTVLGGGGGSEVQLVESGGGLVQPGGSLRLSCAASGFSLSSYDMSWVRQAPGKGLAWIGASYASGPTYYASWAKGRFTISRDNSKNTVYLQMNSLRAEDTATYFCARGGWTGTSHSNIWGQGTLVTVSSGGGGSGGGGSGGGGSGGGGSDIQMTQSPSSLSASVGDRVTITCQSSQSVFSNNYLAWFQQKPGQSPKRLIYSASTLASGVPSRFSGSGSGTDFTLTISSLQPEDFATYYCLGSYACSSADCYVFGTGTKVTVLGGGGGSEVQLVESGGGLVQPGGSLRLSCAASGFSLSSNAMGWVRQAPGKCLEYIGIISVGGFTYYASWAKGRFTISRDNSKNTVYLQMNSLRAEDTATYFCARDRHGGDSSGAFYLWGQGTLVTVSSGGGGSGGGGSAQQLTQSPSSLSASVGDRVTITCQASQNVWNNNYLSWFQQKPGKPPKLLIVTASTLASGVSSRFSGSGSGTDFTLTISSLQPEDFATYYCAGGFSGEIRAFGTGTKVTVLGGGGGSGGGGSGGGGSGGGGSQSQLVESGGGLVQPGGSLRLSCAVSGLSLSRNAMSWVRQAPGKGLEWIGIILTSGSTYYASWAKGRFTISKDNSKNTVYLQMNSLRAEDTAVYFCVRGIASSSLKSFWGQGTLVTVSS
notes: trispecific anti-ROR1 x hSA x CD3 scMATCH3, single chain; also called 19-01-H04-sc02/3 diS scDb-o/28-21-D09-sc04 scDb-i/55-39-G02-sc02 scFv
EC50 [1]: 1.83 nM | Rel. maximum binding (MFIscMATCH3/MFIPRO2213) [1]: 1.98 | Kd [2]: 0.32 nM | koff [2]: 0.0004 s⁻¹ | kon [2]: 1.3e+06 M⁻¹ s⁻¹ | koff [3]: 0.0034 s⁻¹ | fold lower EC50 binding than parental scFv PRO2062 [4]: ~5 fold | kon [5]: 870000 M⁻¹ s⁻¹ | Kd [6]: 2.1 nM | ka2 [6]: 0.0017 s⁻¹ | kd2 [6]: 0.002 s⁻¹

B2: PRO2286 (bispecific antibody)
chain: DVVMTQSPSSLSASVGDRVTITCQASQIISSRSAWYQQKPGQPPKLLIYQASKLASGVPSRFSGSGSGTDFTLTISSLQPEDFATYYCQCTYIDSNFGAFGCGTKLTVLGGGGGSEVQLVESGGGLVQPGGSLRLSCAASGFSLSSYDMSWVRQAPGKGLAWIGASYASGPTYYASWAKGRFTISRDNSKNTVYLQMNSLRAEDTATYFCARGGWTGTSHSNIWGQGTLVTVSSGGGGSGGGGSGGGGSGGGGSDIQMTQSPSSLSASVGDRVTITCQSSQSVFSNNYLAWFQQKPGQSPKRLIYSASTLASGVPSRFSGSGSGTDFTLTISSLQPEDFATYYCLGSYACSSADCYVFGTGTKVTVLGGGGGSEVQLVESGGGLVQPGGSLRLSCAASGFSFSSSYWICWVRQAPGKCLEWVGCVFTGDGTTYYASWAKGRFTISRDNSKNTVYLQMNSLRAEDTATYFCARPVSVYYYGMDLWGQGTLVTVSSGGGGSGGGGSAQQLTQSPSSLSASVGDRVTITCQASQNVWNNNYLSWFQQKPGKPPKLLIVTASTLASGVSSRFSGSGSGTDFTLTISSLQPEDFATYYCAGGFSGEIRAFGTGTKVTVLGGGGGSGGGGSGGGGSGGGGSQSQLVESGGGLVQPGGSLRLSCAVSGLSLSRNAMSWVRQAPGKGLEWIGIILTSGSTYYASWAKGRFTISKDNSKNTVYLQMNSLRAEDTAVYFCVRGIASSSLKSFWGQGTLVTVSS
notes: trispecific anti-ROR1 x hSA x CD3 scMATCH3, single chain; also called 23-13-A01-sc02 diS scDb-o/28-21-D09-sc04 scDb-i/55-39-G02-sc02-scFv
EC50 [1]: 1.33 nM | Rel. maximum binding (MFIscMATCH3/MFIPRO2213) [1]: 1.87 | Kd [2]: 0.33 nM | koff [2]: 0.00045 s⁻¹ | kon [2]: 1.4e+06 M⁻¹ s⁻¹ | koff [3]: 0.0027 s⁻¹ | Kd [7]: 0.062 nM | koff [7]: 6.7e-05 s⁻¹ | kon [7]: 1.1e+06 M⁻¹ s⁻¹ | fold lower EC50 binding than parental scFv PRO2062 [4]: ~5 fold | kon [5]: 1.1e+06 M⁻¹ s⁻¹ | Kd [6]: 1.5 nM | ka2 [6]: 0.00069 s⁻¹ | kd2 [6]: 0.0011 s⁻¹

B3: PRO2670 (bispecific antibody)
chain 1: DVQMTQSPSSLSASVGDRVTITCRASENIYSGLAWYQQKPGKPPKLLIYRASTLASGVSSRFSGSGSGTDFTLTISSLQPEDFATYYCQGGYYSSSSTYIAFGCGTKVTVLGGGGGSGGGGSGGGGSGGGGSQSQVVESGGGRVQPGGSLRLSCAVSGFDLSSYAVSWVRQAPGKCLEWIGIIYPRANTYYASWAKGRFTISKDNSKNTVYLQMNSLRAEDTATYFCARDRYDSGAYLYTTYFNLWGQGTQVTVSSGGGGSGGGGSAFELTQSPSSLSASVGDRVTITCQASESINSRLAWYQQKPGQPPKLLIYDASDLTSGVPSRFSGSGSGTDFTLTISSLQPEDFATYYCQGYGGSSTTTFGCGTKLTVLGGGSGGSDIQMTQSPSSLSASVGDRVTITCQSSQSVFSNNYLAWFQQKPGQSPKRLIYSASTLASGVPSRFSGSGSGTDFTLTISSLQPEDFATYYCLGSYACSSADCYVFGTGTKVTVLG
chain 2: DVQMTQSPSSLSASVGDRVTITCRASENIYSGLAWYQQKPGKPPKLLIYRASTLASGVSSRFSGSGSGTDFTLTISSLQPEDFATYYCQGGYYSSSSTYIAFGCGTKVTVLGGGGGSGGGGSGGGGSGGGGSQSQVVESGGGRVQPGGSLRLSCAVSGFDLSSYAVSWVRQAPGKCLEWIGIIYPRANTYYASWAKGRFTISKDNSKNTVYLQMNSLRAEDTATYFCARDRYDSGAYLYTTYFNLWGQGTQVTVSSGGGGSGGGGSEVQLVESGGGRVQPGGSLRLSCAASGFSLSSYDMSWVRQAPGKGLAWIGASYASGPTYYASWAKGRFTISRDNSKNTVYLQMNSLRAEDTATYFCARGGWTGTSHSNIWGQGTQVTVSSGGGSGGGSGGGSGEVQLVESGGGRVQPGGSLRLSCAASGFSLSSYAMNWVRQAPGKCLEWIGHINAGDIAYYATWAKGRFTISRDNSKNTVYLQMNSLRAEDTATYFCARGAGGFSTGPFKLWGQGTQVTVSS
notes: heterodimeric MATCH4, modified VH domains, optimized variant of PRO2590; also called MATCH4 with 55-38-D07-sc06(RTQ) / 19-04-A10-sc02(RTQ) diS / 28-21-D09-sc04(RTQ) / 55-38-D07-sc06(RTQ); RPO2670
koff [8]: 0.0048 s⁻¹ | kon [9]: 820000 M⁻¹ s⁻¹ | Ka2 [10]: 0.0054 s⁻¹ | Kd [10]: 2.7 nM | Kd2 [10]: 0.0047 s⁻¹ | Kd [11]: 0.11 nM | koff [11]: 8.1e-05 s⁻¹ | kon [11]: 760000 M⁻¹ s⁻¹ | Kd [12]: 3.5 nM | koff [12]: 0.0013 s⁻¹ | kon [12]: 370000 M⁻¹ s⁻¹ | EC50 [13]: 0.85 nM | Rel. maximum binding (MFIMATCH4/MFIPRO2213) [13]: 2.68 | rel. EC50 (EC50, PRO2213/EC50, MATCH4) [13]: 0.39 | Kd [14]: 2.87 nM | koff [14]: 0.000132 s⁻¹ | kon [14]: 46000 M⁻¹ s⁻¹

B4: PRO2658 (bispecific antibody)
chain 1: AQQLTQSPSSLSASVGDRVTITCQASQNVWNNNYLSWFQQKPGKPPKLLIVTASTLASGVSSRFSGSGSGTDFTLTISSLQPEDFATYYCAGGFSGEIRAFGTGTKVTVLGGGGGSGGGGSGGGGSGGGGSQSQLVESGGGLVQPGGSLRLSCAVSGLSLSRNAMSWVRQAPGKGLEWIGIILTSGSTYYASWAKGRFTISKDNSKNTVYLQMNSLRAEDTAVYFCVRGIASSSLKSFWGQGTLVTVSSGGGGSGGGGSAFELTQSPSSLSASVGDRVTITCQASESINSRLAWYQQKPGQPPKLLIYDASDLTSGVPSRFSGSGSGTDFTLTISSLQPEDFATYYCQGYGGSSTTTFGCGTKLTVLGGGSGGSDIQMTQSPSSLSASVGDRVTITCQSSQSVFSNNYLAWFQQKPGQSPKRLIYSASTLASGVPSRFSGSGSGTDFTLTISSLQPEDFATYYCLGSYACSSADCYVFGTGTKVTVLG
chain 2: AQQLTQSPSSLSASVGDRVTITCQASQNVWNNNYLSWFQQKPGKPPKLLIVTASTLASGVSSRFSGSGSGTDFTLTISSLQPEDFATYYCAGGFSGEIRAFGTGTKVTVLGGGGGSGGGGSGGGGSGGGGSQSQLVESGGGLVQPGGSLRLSCAVSGLSLSRNAMSWVRQAPGKGLEWIGIILTSGSTYYASWAKGRFTISKDNSKNTVYLQMNSLRAEDTAVYFCVRGIASSSLKSFWGQGTLVTVSSGGGGSGGGGSEVQLVESGGGLVQPGGSLRLSCAASGFSLSSYDMSWVRQAPGKGLAWIGASYASGPTYYASWAKGRFTISRDNSKNTVYLQMNSLRAEDTATYFCARGGWTGTSHSNIWGQGTLVTVSSGGGSGGGSGGGSGEVQLVESGGGLVQPGGSLRLSCAASGFSLSSYAMNWVRQAPGKCLEWIGHINAGDIAYYATWAKGRFTISRDNSKNTVYLQMNSLRAEDTAVYFCARGAGGFSTGPFKLWGQGTLVTVSS
notes: heterodimeric MATCH4
binding result [4]: binds
